Legend:
[1] = target: T1, CD28 presented on CHO cells (UniProt P10747 19-220, limits assumed); experiment: flow cytometry, lower graph taken as panel B of the legend = CD28 CHO cells; FITC goat anti-human IgG [lower graph]
T1 construct: whole, on cells; also called CD28 CHO; CD28-expressing CHO cells
Experimental: (§1) Seeded plates containing the proteins were incubated on ice for one hour. Subsequently, the wells were washed once with 200 μl 1% FBS in PBS. Goat anti-human antibody labeled with FITC (Fc Sp) at 1:100 was then added to each well, and the plates were again incubated on ice for one hour. The plates were then washed once with 200 μl 1% FBS in PBS and the cells were re-suspended in 200 μl 1% FBS and analyzed by FACS.
(§2) To assess the binding properties of the anti-CD28 peptide 2E12 VHVL, CD28-expressing CHO cells were plated by seeding in individual wells of a culture plate. […] The 2E12IgGvHvL SMIP purified protein was added to individual seeded wells, again using a two-fold dilution scheme, i.e., from 20 μg/ml down to […]. One well received no protein to provide a background control. The plates were then incubated on ice for one hour, washed once with 200 μl 1% FBS in PBS, and goat anti-human antibody labeled with FITC (Fc Sp) at 1:100 was added to each well. The plates were again incubated on ice for one hour and subsequently washed once with 200 μl 1% FBS in PBS. Following re-suspension of the cells in 200 μl 1% FBS, FACS analysis was performed.

[2] = target: T2, CD28mIgG (UniProt P10747 19-152); experiment: sandwich flow cytometry: fusion protein titrated on WIL-2S cells (held by CD20), then CD28mIgG, then FITC anti-mouse
T2 construct: Bought reagent; the construct is not described; also called CD28Ig (Ancell); CD28 fused to mouse antibody; not shown: mouse Ig part of the bought fusion; not described

[3] = target: T3, CD20 (human, UniProt P11836 1-297); experiment: flow cytometry, upper graph taken as panel A of the legend = WIL-2S cells (CD20); FITC goat anti-human IgG [upper graph]
T3 construct: whole, on cells; 2H7 is called murine anti-human CD20; also called CD20 presented on WIL-2S cells; CD20 on Ramos, BJAB, SU-DHL-6 and DoHH2 B cells
T3 sequence (looked up): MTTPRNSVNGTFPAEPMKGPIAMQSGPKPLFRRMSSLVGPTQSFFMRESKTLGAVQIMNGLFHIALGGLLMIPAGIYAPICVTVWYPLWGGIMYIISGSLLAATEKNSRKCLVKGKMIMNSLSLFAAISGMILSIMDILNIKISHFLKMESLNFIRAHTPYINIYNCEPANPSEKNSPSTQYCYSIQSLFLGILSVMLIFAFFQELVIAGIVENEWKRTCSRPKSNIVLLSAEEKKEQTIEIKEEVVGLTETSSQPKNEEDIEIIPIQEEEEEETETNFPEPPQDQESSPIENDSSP
Experimental: as §1, §2

[4] = target: T3, CD20; experiment: flow cytometry on WIL2-S cells (CD20), protein A purified protein at 0.72 ug/ml, FITC goat anti-human IgG
Experimental: “L1-L6” refers to the 2H7-sss-hIgG-Lx-2e12 molecules where […] represents the L1-L6 linkers and the 2e12 V regions in the orientation of VL-VH. All the molecules were tested at a concentration of 0.72 μg/ml, and the binding detected using FITC conjugated goat anti-human IgG at 1:100.

Row | Binder | EC50 (read off the curve) [1] | EC50 (read off the curve) [2] | EC50 (read off the curve) [3] | binding result [4]
1 | 2H7-sss-hIgG-H7-2e12 HL (bispecific antibody, Assembled from modules as m11; also called 2H7-sss-IgG-H7-2e12-HL) QIVLSQSPAILSASPGEKVTMTCRASSSVSYMHWYQQKPGSSPKPWIYAPSNLASGVPARFSGSGSGTSYSLTISRVEAEDAATYYCQQWSFNPPTFGAGTKLELKDGGGSGGGGSGGGGSSQAYLQQSGAESVRPGASVKMSCKASGYTFTSYNMHWVKQTPRQGLEWIGAIYPGNGDTSYNQKFKGKATLTVDKSSSTAYMQLSSLTSEDSAVYFCARVVYYSNSYWYFDVWGTGTTVTVSEPKSSDKTHTSPPSPAPELLGGSSVFLFPPKPKDTLMISRTPEVTCVVVDVSHEDPEVKFNWYVDGVEVHNAKTKPREEQYNSTYRVVSVLTVLHQDWLNGKEYKCKVSNKALPASIEKTISKAKGQPREPQVYTLPPSRDELTKNQVSLTCLVKGFYPSDIAVEWESNGQPENNYKTTPPVLDSDGSFFLYSKLTVDKSRWQQGNVFSCSVMHEALHNHYTQKSLSLSPGKGCPPCPNSQVQLKESGPGLVAPSQSLSITCTVSGFSLTGYGVNWVRQPPGKGLEWLGMIWGDGSTDYNSALKSRLSITKDNSKSQVFLKMNSLQTDDTARYYCARDGYSNFHYYVMDYWGQGTSVTVSSGGGGSGGGGSGGGGSGGGGSDIVLTQSPASLAVSLGQRATISCRASESVEYYVTSLMQWYQQKPGQPPKLLISAASNVESGVPARFSGSGSGTDFSLNIHPVEEDDIAMYFCQQSRKVPWTFGGGTKLEIKR | ~0.5 µg/mL | ~0.3 µg/mL | ~1 µg/mL | 
2 | 2H7-sss-hIgG P238S/P331S-H3-2e12 VHVL (bispecific antibody, Assembled from modules as m11; also called 2H7-sss-hIgG-H3-2e12 HL) QIVLSQSPAILSASPGEKVTMTCRASSSVSYMHWYQQKPGSSPKPWIYAPSNLASGVPARFSGSGSGTSYSLTISRVEAEDAATYYCQQWSFNPPTFGAGTKLELKDGGGSGGGGSGGGGSSQAYLQQSGAESVRPGASVKMSCKASGYTFTSYNMHWVKQTPRQGLEWIGAIYPGNGDTSYNQKFKGKATLTVDKSSSTAYMQLSSLTSEDSAVYFCARVVYYSNSYWYFDVWGTGTTVTVSEPKSSDKTHTSPPSPAPELLGGSSVFLFPPKPKDTLMISRTPEVTCVVVDVSHEDPEVKFNWYVDGVEVHNAKTKPREEQYNSTYRVVSVLTVLHQDWLNGKEYKCKVSNKALPASIEKTISKAKGQPREPQVYTLPPSRDELTKNQVSLTCLVKGFYPSDIAVEWESNGQPENNYKTTPPVLDSDGSFFLYSKLTVDKSRWQQGNVFSCSVMHEALHNHYTQKSLSLSPGKNYGGGGSGNSQVQLKESGPGLVAPSQSLSITCTVSGFSLTGYGVNWVRQPPGKGLEWLGMIWGDGSTDYNSALKSRLSITKDNSKSQVFLKMNSLQTDDTARYYCARDGYSNFHYYVMDYWGQGTSVTVSSGGGGSGGGGSGGGGSGGGGSDIVLTQSPASLAVSLGQRATISCRASESVEYYVTSLMQWYQQKPGQPPKLLISAASNVESGVPARFSGSGSGTDFSLNIHPVEEDDIAMYFCQQSRKVPWTFGGGTKLEIKR | ~0.8 µg/mL | ~0.4 µg/mL | ~1 µg/mL | 
3 | 2H7-sss-hIgG P238S/P331S-H6-2e12 VHVL (bispecific antibody, Assembled from modules as m11; The preparation held a share of cleaved, SMIP-sized molecules; also called 2H7-sss-hIgG-H6-2e12) QIVLSQSPAILSASPGEKVTMTCRASSSVSYMHWYQQKPGSSPKPWIYAPSNLASGVPARFSGSGSGTSYSLTISRVEAEDAATYYCQQWSFNPPTFGAGTKLELKDGGGSGGGGSGGGGSSQAYLQQSGAESVRPGASVKMSCKASGYTFTSYNMHWVKQTPRQGLEWIGAIYPGNGDTSYNQKFKGKATLTVDKSSSTAYMQLSSLTSEDSAVYFCARVVYYSNSYWYFDVWGTGTTVTVSEPKSSDKTHTSPPSPAPELLGGSSVFLFPPKPKDTLMISRTPEVTCVVVDVSHEDPEVKFNWYVDGVEVHNAKTKPREEQYNSTYRVVSVLTVLHQDWLNGKEYKCKVSNKALPASIEKTISKAKGQPREPQVYTLPPSRDELTKNQVSLTCLVKGFYPSDIAVEWESNGQPENNYKTTPPVLDSDGSFFLYSKLTVDKSRWQQGNVFSCSVMHEALHNHYTQKSLSLSPGKGGGGSGGGGSGGGGSGNSQVQLKESGPGLVAPSQSLSITCTVSGFSLTGYGVNWVRQPPGKGLEWLGMIWGDGSTDYNSALKSRLSITKDNSKSQVFLKMNSLQTDDTARYYCARDGYSNFHYYVMDYWGQGTSVTVSSGGGGSGGGGSGGGGSGGGGSDIVLTQSPASLAVSLGQRATISCRASESVEYYVTSLMQWYQQKPGQPPKLLISAASNVESGVPARFSGSGSGTDFSLNIHPVEEDDIAMYFCQQSRKVPWTFGGGTKLEIKR | ~0.8 µg/mL | ~0.3 µg/mL | ~1 µg/mL | 
4 | 2H7-sss-hIgG-L4-2e12 (H4 linker, 2e12 VL-VH) (bispecific antibody, Assembled from modules as m10; not shown: human IgG1 CH2-CH3) chain (part 1 of 2): QIVLSQSPAILSASPGEKVTMTCRASSSVSYMHWYQQKPGSSPKPWIYAPSNLASGVPARFSGSGSGTSYSLTISRVEAEDAATYYCQQWSFNPPTFGAGTKLELKDGGGSGGGGSGGGGSSQAYLQQSGAESVRPGASVKMSCKASGYTFTSYNMHWVKQTPRQGLEWIGAIYPGNGDTSYNQKFKGKATLTVDKSSSTAYMQLSSLTSEDSAVYFCARVVYYSNSYWYFDVWGTGTTVTVSEPKSSDKTHTSPPSP chain (part 2 of 2): GGGGSGGGGSGNSDIVLTQSPASLAVSLGQRATISCRASESVEYYVTSLMQWYQQKPGQPPKLLISAASNVESGVPARFSGSGSGTDFSLNIHPVEEDDIAMYFCQQSRKVPWTFGGGTKLEIKRGGGGSGGGGSGGGGSQVQLKESGPGLVAPSQSLSITCTVSGFSLTGYGVNWVRQPPGKGLEWLGMIWGDGSTDYNSALKSRLSITKDNSKSQVFLKMNSLQTDDTARYYCARDGYSNFHYYVMDYWGQGTSVTVSS |  |  |  | binds
5 | 2H7-sss-hIgG-L1-2e12 (H1 linker, 2e12 VL-VH) (bispecific antibody, Assembled from modules as m10; not shown: human IgG1 CH2-CH3) chain (part 1 of 2): QIVLSQSPAILSASPGEKVTMTCRASSSVSYMHWYQQKPGSSPKPWIYAPSNLASGVPARFSGSGSGTSYSLTISRVEAEDAATYYCQQWSFNPPTFGAGTKLELKDGGGSGGGGSGGGGSSQAYLQQSGAESVRPGASVKMSCKASGYTFTSYNMHWVKQTPRQGLEWIGAIYPGNGDTSYNQKFKGKATLTVDKSSSTAYMQLSSLTSEDSAVYFCARVVYYSNSYWYFDVWGTGTTVTVSEPKSSDKTHTSPPSP chain (part 2 of 2): NSDIVLTQSPASLAVSLGQRATISCRASESVEYYVTSLMQWYQQKPGQPPKLLISAASNVESGVPARFSGSGSGTDFSLNIHPVEEDDIAMYFCQQSRKVPWTFGGGTKLEIKRGGGGSGGGGSGGGGSQVQLKESGPGLVAPSQSLSITCTVSGFSLTGYGVNWVRQPPGKGLEWLGMIWGDGSTDYNSALKSRLSITKDNSKSQVFLKMNSLQTDDTARYYCARDGYSNFHYYVMDYWGQGTSVTVSS |  |  |  | binds
6 | 2H7-sss-hIgG-L2-2e12 (H2 linker, 2e12 VL-VH) (bispecific antibody, Assembled from modules as m10; not shown: human IgG1 CH2-CH3) chain (part 1 of 2): QIVLSQSPAILSASPGEKVTMTCRASSSVSYMHWYQQKPGSSPKPWIYAPSNLASGVPARFSGSGSGTSYSLTISRVEAEDAATYYCQQWSFNPPTFGAGTKLELKDGGGSGGGGSGGGGSSQAYLQQSGAESVRPGASVKMSCKASGYTFTSYNMHWVKQTPRQGLEWIGAIYPGNGDTSYNQKFKGKATLTVDKSSSTAYMQLSSLTSEDSAVYFCARVVYYSNSYWYFDVWGTGTTVTVSEPKSSDKTHTSPPSP chain (part 2 of 2): GGGGSGNSDIVLTQSPASLAVSLGQRATISCRASESVEYYVTSLMQWYQQKPGQPPKLLISAASNVESGVPARFSGSGSGTDFSLNIHPVEEDDIAMYFCQQSRKVPWTFGGGTKLEIKRGGGGSGGGGSGGGGSQVQLKESGPGLVAPSQSLSITCTVSGFSLTGYGVNWVRQPPGKGLEWLGMIWGDGSTDYNSALKSRLSITKDNSKSQVFLKMNSLQTDDTARYYCARDGYSNFHYYVMDYWGQGTSVTVSS |  |  |  | binds
7 | 2H7-sss-hIgG-L3-2e12 (H3 linker, 2e12 VL-VH) (bispecific antibody, Assembled from modules as m10; not shown: human IgG1 CH2-CH3) chain (part 1 of 2): QIVLSQSPAILSASPGEKVTMTCRASSSVSYMHWYQQKPGSSPKPWIYAPSNLASGVPARFSGSGSGTSYSLTISRVEAEDAATYYCQQWSFNPPTFGAGTKLELKDGGGSGGGGSGGGGSSQAYLQQSGAESVRPGASVKMSCKASGYTFTSYNMHWVKQTPRQGLEWIGAIYPGNGDTSYNQKFKGKATLTVDKSSSTAYMQLSSLTSEDSAVYFCARVVYYSNSYWYFDVWGTGTTVTVSEPKSSDKTHTSPPSP chain (part 2 of 2): NYGGGGSGNSDIVLTQSPASLAVSLGQRATISCRASESVEYYVTSLMQWYQQKPGQPPKLLISAASNVESGVPARFSGSGSGTDFSLNIHPVEEDDIAMYFCQQSRKVPWTFGGGTKLEIKRGGGGSGGGGSGGGGSQVQLKESGPGLVAPSQSLSITCTVSGFSLTGYGVNWVRQPPGKGLEWLGMIWGDGSTDYNSALKSRLSITKDNSKSQVFLKMNSLQTDDTARYYCARDGYSNFHYYVMDYWGQGTSVTVSS |  |  |  | binds

Reference: US20140154252A1 (EMERGENT PRODUCT DEVELOPMENT SEATTLE, published 2014)
